According to patent US20050245731A1:
Values joined by “and” are separate entries in the source; they are usually repeats but may differ in a detail not shown here. Equal values may be shown once.

Legend:
[1] = molecular target: TNF-α cell surface receptors on human HeLa and FS11 fibroblast cells (human); test: 125I-TNF-α binding to cells; urine concentrate holding TNF Inhibitory Protein applied at 37° C. 90′ prior to TNF-α and removed (condition B)
[2] = molecular target: TNF-α cell surface receptors on human HeLa and FS11 fibroblast cells (human); test: 125I-TNF-α binding to cells; control without urine concentrate, condition B (37° C. 90′ prior to application of TNF-α)
[3] = molecular target: TNF-α cell surface receptors on human HeLa and FS11 fibroblast cells (human); test: 125I-TNF-α binding to cells; control without urine concentrate, condition A (4° C. 90′ prior to application of TNF-α)
[4] = molecular target: TNF-α cell surface receptors on human HeLa and FS11 fibroblast cells (human); test: 125I-TNF-α binding to cells; control without urine concentrate, condition C (4° C. together with TNF-α)

Sequence of TNF-α cell surface receptors on human HeLa and FS11 fibroblast cells (human) (P19438 30-455): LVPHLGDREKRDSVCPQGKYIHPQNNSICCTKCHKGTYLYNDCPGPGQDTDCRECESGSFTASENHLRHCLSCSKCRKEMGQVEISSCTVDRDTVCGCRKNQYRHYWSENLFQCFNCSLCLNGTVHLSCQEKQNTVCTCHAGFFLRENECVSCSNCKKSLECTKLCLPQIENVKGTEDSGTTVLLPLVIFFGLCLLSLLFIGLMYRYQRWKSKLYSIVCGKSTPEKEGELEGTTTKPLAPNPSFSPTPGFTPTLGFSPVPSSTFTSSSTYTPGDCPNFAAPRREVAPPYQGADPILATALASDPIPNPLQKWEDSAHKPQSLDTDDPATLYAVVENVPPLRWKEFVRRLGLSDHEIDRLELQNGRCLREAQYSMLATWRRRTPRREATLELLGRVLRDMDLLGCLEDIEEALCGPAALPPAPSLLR

CPM [1]: 4730 CPM and 4460 CPM | CPM [2]: 5560 CPM | CPM [3]: 5290 CPM | CPM [4]: 4630 CPM
Substance: Tumor Necrosis Factor-α (TNF-α) (from UniProt P01375 77-233) (ligand)
